Measurements reported in publication PMC7954794, “Protein context shapes the specificity of SH3 domain-mediated interactions in vivo” (Nature Communications, 2021).

Test system: Lsb3
Assay: Deep mutational scanning of Abp1 SH3, Abp1-Lsb3 DHFR-PCA (DMS score)
Assay type: cell-based, Saccharomyces cerevisiae
Conditions: Abp1-Lsb3 DHFR-PCA; WT = 0; Fig. S3C-D
In short: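 Yeast carrying single-codon Abp1 SH3 variants at the endogenous locus, each paired with a Hua2 or Lsb3 DHFR-fragment partner; binding scored by growth over two successive 72 h PCA selections at 30 °C. Illumina counts before and after selection give the DMS score; independent duplicates.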

B1: WT (protein, UniProt P15891 2-592, looked up)
Actin-binding protein: ALEPIDYTTHSREIDAEYLKIVRGSDPDTTWLIISPNAKKEYEPESTGSSFHDFLQLFDETKVQYGLARVSPPGSDVEKIIIIGWCPDSAPLKTRASFAANFAAVANNLFKGYHVQVTARDEDDLDENELLMKISNAAGARYSIQTSSKQQGKASTPPVKKSFTPSKSPAPVSKKEPVKTPSPAPAAKISSRVNDNNDDDDWNEPELKERDFDQAPLKPNQSSYKPIGKIDLQKVIAEEKAKEDPRLVQKPTAAGSKIDPSSDIANLKNESKLKRDSEFNSFLGTTKPPSMTESSLKNDDDKVIKGFRNEKSPAQLWAERKAKQNSGNAETKAEAPKPEVPEDEPEGEPDVKDLKSKFEGLAASEKEEEEMENKFAPPPKKSEPTIISPKPFSKPQEPVKAEEAEQPKTDYKKIGNPLPGMHIEADNEEEPEENDDDWDDDEDEAAQPPLPSRNVASGAPVQKEEPEQEEIAPSLPSRNSIPAPKQEEAPEQAPEEEIEEEAEEAAPQLPSRSSAAPPPPPRRATPEKKPKENPWATAEYDYDAAEDNELTFVENDKIINIEFVDDDWWLGELEKDGSKGLFPSNYVSLGN
DMS score Lsb3: 0
